The target of data set [1] is human TNF-alpha.
Data set [2] addresses proteins from human blood serum.
For data set [3], the target named is peptide with the desired target sequence of TNF-alpha.
Data set [4] concerns the target T1, substrate B.
T1 chain: KKWLGRVPGGPV

Data set [5] concerns the target T2, substrate A.
T2 chain: LLWLGRVVGGPV

Substitutions are numbered along the chain they refer to.

human TNF-alpha, sequence (chain, as listed by the source): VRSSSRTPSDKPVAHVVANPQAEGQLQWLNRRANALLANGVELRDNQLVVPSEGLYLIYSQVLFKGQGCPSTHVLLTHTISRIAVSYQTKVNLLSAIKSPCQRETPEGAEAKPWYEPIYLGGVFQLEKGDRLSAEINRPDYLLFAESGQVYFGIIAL

B1: variant x (protein)
chain: IVGGYNCEENSVPYQVSLNSGYHFCGGSLINEQWVVSAGHCYAAFNGKSRIQVRLGEHNIGVLEGNEQFINAAKIIRHPQYDWKTLNNDIMLIKLSSRAVINARVSTISLPTAPPATGTKCLISGWGNRKDFWTASSGADFPDELQCLDAPVLSQTKCEASYPGKITSNMFCVGFLEGGKDSCQGDSGGPVVRNGQLQGVVSWGDGCAQKNKPGVYTKVYNYVKWIKNTIAANS
Regarding B1, the “remaining intact protein as a function of time (proteolytic digestion)” value in data set [1] is “the variants as well as human trypsin I digest human TNF-alpha”; in data set [2], “only trypsin shows activity on serum protein”.

B2: variant e (protein)
chain: IVGGYNCEENSVPYQVSLNSGYHFCGGSLINEQWVVSAGHCYVNIMAAKSRIQVRLGEHNIEVLEGNEQFINAAKIIRHPQYDRKTLNNDIMLIKLSSRAVINARVSTISLPTAPPATGTKCLISGWGNTTARKTASSGADYPDELQCLDAPVLSQAKCEASYPGKITSNMFCVGFLEGGKDSCQGDSGGPVVCNGQLQGVVSWGDGCAQKNKPGVYTKVYNYVKWIKNTIAANS
The protein B2 came in with a k with comp./k without comp. in data set [3] of 0.374.

B3: variant c (protein)
chain: B2 chain with V43E, N44I, I45A, M46N, A47R, A48E, T130R, T131G, K134T
B3 returned a k with comp./k without comp. in data set [3] of 0.235.

B4: variant d (protein)
chain: B2 chain with V43K, N44A, I45V, M46V, A47G, A48T, T130R, A132P, R133I, K134S
B4 registered a k with comp./k without comp. in data set [3] of 0.31.

B5: Variant 1 (protein)
chain: B2 chain with V43D, N44A, I45V, M46G, A47R, A48D, T131I, A132T, R133N, K134S
For B5, the “rate constants of proteolytic digestion (proportional to kcat/KM), relative to human trypsin I” value (“rate constants … relative to human trypsin I” for short) in data set [4] was “the specific activity of variants 1 and 2 is shifted (SEQ ID NOs: 2 and 3, respectively) towards substrate B”.

B6: variant b (protein)
chain: B2 chain with V43G, N44F, I45V, A47F, A48N, T130R, T131S, A132P, R133L, K134T
B6 displayed a k with comp./k without comp. in data set [3] of 0.187.

B7: variant a (protein)
chain: IVGGYNCEENSVPYQVSLNSGYHFCGGSLINEQWVVSAGHCYRPWDPSKSRIQVRLGEHNIEVLEGNEQFINAAKIIRHPQYDRKTLNNDIMLIKLSSRAVINARVSTISLPTAPPATGTKCLISGWGNVHPTSTASSGADYPDELQCLDAPVLSQAKCEASYPGKITSNMFCVGFLEGGKDSCQGDSGGPVVCNGQLQGVVSWGDGCAQKNKPGVYTKVYNYVKWIKNTIAANS
In turn, B7 returned a k with comp./k without comp. in data set [3] of 0.13.

B8: variant f (protein)
chain: IVGGYNCEENSVPYQVSLNSGYHFCGGSLINEQWVVSAGHCYAAFNGDKSRIQVRLGEHNIEVLEGNEQFINAAKIIRHPQYDRKTLNNDIMLIKLSSRAVINARVSTISLPTAPPATGTKCLISGWGNRKDFWTASSGADYPDELQCLDAPVLSQAKCEASYPGKITSNMFCVGFLEGGKDSCQGDSGGPVVCNGQLQGVVSWGDGCAQKNKPGVYTKVYNYVKWIKNTIAANS
For B8, the k with comp./k without comp. in data set [3] came to 0.487.

B9: Variant 3 (protein)
chain: B8 chain with F45T
With B9, the “rate constants … relative to human trypsin I” value in data set [4] and in data set [5] was “serves as a negative control with similar activities as the human trypsin I” in each case.

B10: Variant 2 (protein)
chain: B7 chain with R43N, P44G, W45R, P47L, S48E, H131R, P132G, S134W
As for B10, the “rate constants … relative to human trypsin I” value in data set [4] is “the specific activity of variants 1 and 2 is shifted (SEQ ID NOs: 2 and 3, respectively) towards substrate B”.

For the origin of these results see patent US20090208440.
